Experimental data published in article PMC4759655 (Immunity, 2016).

Target: the molecule itself
Test: cross-linking

B1: CD45 protein tyrosine phosphatase (receptor, UniProt P06800 26-1293, looked up)
chain: QTPTPSDELSTTENALLLPQSDPLPARTTESTPPSISERGNGSSETTYHPGVLSTLLPHLSPQPDSQTPSAGGADTQTFSSQADNPTLTPAPGGGTDPPGVPGERTVPGTIPADTAFPVDTPSLARNSSAASPTHTSNVSTTDISSGASLTTLTPSTLGLASTDPPSTTIATTTKQTCAAMFGNITVNYTYESSNQTFKADLKDVQNAKCGNEDCENVLNNLEECSQIKNISVSNDSCAPATTIDLYVPPGTDKFSLHDCTPKEKANTSICLEWKTKNLDFRKCNSDNISYVLHCEPENNTKCIRRNTFIPERCQLDNLRAQTNYTCVAEILYRGVKLVKNVINVQTDLGIPETPKPSCGDPAARKTLVSWPEPVSKPESASKPHGYVLCYKNNSEKCKSLPNNVTSFEVESLKPYKYYEVSLLAYVNGKIQRNGTAEKCNFHTKADRPDKVNGMKTSRPTDNSINVTCGPPYETNGPKTFYILVVRSGGSFVTKYNKTNCQFYVDNLYYSTDYEFLVSFHNGVYEGDSVIRNESTNFNAKALIIFLVFLIIVTSIALLVVLYKIYDLRKKRSSNLDEQQELVERDDEKQLMDVEPIHSDILLETYKRKIADEGRLFLAEFQSIPRVFSKFPIKDARKPHNQNKNRYVDILPYDYNRVELSEINGDAGSTYINASYIDGFKEPRKYIAAQGPRDETVDDFWRMIWEQKATVIVMVTRCEEGNRNKCAEYWPSMEEGTRAFKDIVVTINDHKRCPDYIIQKLNVAHKKEKATGREVTHIQFTSWPDHGVPEDPHLLLKLRRRVNAFSNFFSGPIVVHCSAGVGRTGTYIGIDAMLEGLEAEGKVDVYGYVVKLRRQRCLMVQVEAQYILIHQALVEYNQFGETEVNLSELHSCLHNMKKRDPPSDPSPLEAEYQRLPSYRSWRTQHIGNQEENKKKNRNSNVVPYDFNRVPLKHELEMSKESEPESDESSDDDSDSEETSKYINASFVMSYWKPEMMIAAQGPLKETIGDFWQMIFQRKVKVIVMLTELVNGDQEVCAQYWGEGKQTYGDMEVEMKDTNRASAYTLRTFELRHSKRKEPRTVYQYQCTTWKGEELPAEPKDLVSMIQDLKQKLPKASPEGMKYHKHASILVHCRDGSQQTGLFCALFNLLESAETEDVVDVFQVVKSLRKARPGVVCSYEQYQFLYDIIASIYPAQNGQVKKTNSQDKIEFHNEVDGGKQDANCVRPDGPLNKAQEDSRGVGTPEPTNSAEEPEHAANGSASPAPTQSS
stoichiometry N: 2
